Measurements as given in the DeepSol protein solubility set.

assay: soluble on expression in E. coli; label from the status in PepcDB or PDB records

Row | Sequence | soluble on expression in E. coli
1 | MAHHHHHHMEPYASPAAVPPPHVVYDALSKAQKAAPQLRPIPAFEVYKVAREEELAAYRMLCRVLFMHHGTPLPKAQQRILDDMGEDLCIGQTRQGLEKEMAEQDKVLQGIRKSGVLRRRGDFTDGVEEMTVEDYLAEAPKDDGNGLFMPTSKVRRVDGADSGATRATVIAAAAGLGAKRKGNVHAAVSKLAKEAETAGKSLLYASSAQEEQQLIQVLQQKRELLVALREELTEA | not soluble
2 | MRFVYLSDLDNNQKNFYKEADRQSALLSMLIEKDIDFIGAGANFYQVGSKKDWSQFPLFADSLLHRSNSLISLQWMEKVEEKDIDEHFQQIHKNYPLAKLYTVPKDQPKTYGYVMKNHEPIYIATDIYPRDEKNTPLIGFYSSRERFNLVVEEFLTTGRPSVSDKIRLLQDSLDQSAQKTGMLVYHPVFTSDKTALKGVMVGVVRITSYFDRLVNSTSLGEELVVRIIDTGFDAGDDPIMYQSSTWNNFKGVDYTTSVKIENRLWKIEYKSDNKLNEYQRLTLEHHHHHH | not soluble
3 | SLAHIVTLNTPYREDWLTQLADVVTDPDELLRLLNIDADEKLLAGRSAKKLFALRVPRSFIDRMEKGNPDDPLLRQVLTSQDEFVVASGFSTDPLEEQHSVVPGLLHKYHNRALLLVKGGCAVNCRYCFRRHFPYAENQGNKRNWQTALEYVAAHPELDEMIFSGGDPLMAKEHELDWLLTQLEAIPHIKRLRIHSRLPIVIPARITEALVERFARSTLQILLVNHINHANEVDETFRQAMAKLRRVGVTLLNQSVLLRGVNDNAQTLANLSNALFDAGVMPYYLHVLDKVQGAAHFMVSDDEARQIMRELLTLVSGYLVPKLAREIGGEPSKTPLDLQLRQQ | not soluble
4 | GMNLDSYERTGLRVSLDLVNIATPGSRRGTPHTGGCVIEDLHDLLKDDPASVAQLGDDHVEGFVELARLLHTAIDALSNGQVATAATALNHLLRKHPATPELAQDPDGTWRLHHHPLDAELVPMWTAICAEGLAREIGHQNVRRFGICNAHRCDRVYFDTSRNGTRQYCSLACQNRVKAAAFRERRAT | soluble
5 | MNVERWAQALKEEYPRGLLGEREALVSLLVGKGLSHAEAVEVARALEAQGYAHFLPGERPRWFFSSRSLDLKALMRALDQEFPEFVGEGDEEEEALAFLAARLGDREVAREVLEAMRAAGYVERAYSPELARDRLFFRFPEALRLLG | soluble
6 | MIRRENRLRREFIFRKSLEEKQKSLEEKREKIRNALENNTKIDYNLRKDAIELAKGSDWGGQQYETDSEYRWAGAQDPKIVITTSRDPSSRLKMFAKEMKLIFPNAQRINRGHYDVKQVVQASKAQDSTDLIIFTETRGNPDGMLVCHLPFGPTAFFSMANVVMRHDIPNCGTMSEQYPHLIFDNLNSKLGHRFTTILKHLFPVPKPDSKRIITFSNSEDYISFRHHVYKTENDGEVELTEAGPRFELKPYQIKLGTLETLAAAEDEWVLRSYTNTARKRTFLSISRADDDE | not soluble
7 | MEFGRNPLSMTSTKPTLLNVLDDVGEAALHAIPKVDDITSHKIYVIAVQPVSFSDIESQAVKQDASSPNNCCCSCMHGVLRFFAELCCNCCAGCVQGICQG | not soluble
8 | MSFQQPQASPISPGDSGWLIKMRKNRYLDHTSKVNEPKKYRSMDQLPTGKVGAPDNEKSEGTDPLHWQLRKDFHLAKYSERRASYHVESSSYIHSSQQIQHPPQQHHPPPPSPPPVAETIQHQPHPSQQQPSTTTISSRQLYKSQLLYPPGSTENIASEHKPAIRPPEKSVYENNPIAPSELNVQVKRAPPQGPPPPPPPQAPADIDYPERLMSPPPTHQPRSILKGYSSQQYYSQTNLTESHHHQSSQETSLNPQQMHPRPSDRRTPTHFEDLSEDEKTRIMHENLQRHRNMRSGPNGPRPTTTSFNGPFFRLEQVNPGQNQPQQPQYQQHPRSQSVDPSGDMNGGPRPIHQNFSASEIELHHYSRNAEPSVVVWPPVSEKERERPSSVLAKNFNDPERIDEYQRQKRLEYEAIQRTNEKQAVSMAKQVNAMMQQQKLYERSHGMTSPVPIMESISPQPQVSHHHHQPQQHQQHQPQQQYYPSPPPPPQPYRDPEPVFNPVQVYETRPISALSDQIDQPPSQQAPTSWKRTYIVERPRDVAKNEIITSDQLLEKEAYDVDLLKRRETFVEKPEEAPRINRLGRRWQPPPERPYVWPTLRRAMSVEPSSMPVDFAPGVPHNYDDNEEYKWEPVVNDPGYKKEDKNFTPVNSPPASPRRGHGVGPLDEPARRQAKYVIQPSPDGSHRPKAVFRKERHAPSGGFYPHAPNAIKVVKKRAQSVQGLLSPTDNVEVIHQRNYHRLDLEQNGHHGQKLRRSQHGGSEMDLRRSTQEMPDWEKIYELPPHSSQIVQKDMPRHVDVQRRLSKFEGSIQNLRAATSTQHLDSMQQLHFPMPDYEPPQPPQQRRRTESSGYRGGPPPPPPMPQQQPREMSRRNSVASTRIDSPSLMIPHHRQSRSDSRGPPQMSRAASSIPLSPQPTPQHHHHHHSQRPTTPGATRARNYIARATAPSPTPYSYDRARAYVPPALPPGYRLADPIPDQRAMSPSPGHTRKLIRNVSESAQRLHPSGSTPQTSRAPSRHSHRQSPNPRFL | not soluble
9 | MSLKSGTMVEKLASAKTIAFDKTGTITQGQLSVDQVQPINAGITAAELVGLAASVEQESSHILARSIVAYARKQDVPLKNITDLAEVSGAGVKAFVDGAEIRVGKKNFVTQESQETEKIDKTTIHISRNGTYLGRITFTDTVRPEAKETMEKLHQLHLQRILMLTGDQESVAETIAAEVGITEVHGECLPQDKLTILKELPKENHPVIMVGDGVNDAPSLAAADVGIAMGAHGATAASETADVVILKDDLSKVSQAVEIAQDTMKIAKEGHHHHHH | soluble
10 | GSVRPVVGEIAANSIAAEAQIAPGTELKAVDGIETPDWDAVRLQMVDKIGDESTTITVAPFGSDQRRDVKLDLRHWAFEPDKEDPVSSLGIRPRGPQ | soluble
11 | MGSDKIHHHHHHMALWQAKQVCPEIIFVPPRMDLYLRFSQMAREIYSEYTDKIEPYGIDEAWLDVSDSGNLKGSGMTIAREISHRIKYELGVTVSIGISWNKIYAKLGSDYKKPDAITEFNRENYKDRIWQLPASDLLYVGRQTNKKLQKLGIRTIGQLAESDEKLLESHFGKIGNVLWAFANGWDEDPVCKEGYEAPVKSIGNSTTTPRDLENDLDVWIIQIALAESVAARLRKHGFKCKTVEITVRDNGLYSFSRQIHLRQPTNITNEIVTAAFQLFKDNYKWEHPIRSLGIRAADLVLDDIPVQLDLFGNQEKKEKLEKLDRTVDEIRRRFGYFSIQRAAMYQDKVLSHLDAGTHTVHPHSYFHG | not soluble
12 | MGSDKIHHHHHHMAIKATDLFKLVSLSYPSATDDGYFVQENRISEADNTYYQRICFVNHRGGTIAYGFDQKHDRHPLLSPDQQWLAFLSQASDKTTQVFLQAVNGGTAKQFSAEKEGVSYFGWQADSQALFIQTTVGAKPKKTDKQWPQPVTVSRVPYKLNGVGLLPEHVAYELRVQRLRQKTSRLVMGREHEFEVGAISPDGQTLAFTAERLPDDPNDFSQATYLLNLADQQVTMVNDQLPQAALSPEAFSADGKQLLLVGSDNHLPNVSQSHLWHYDLATKTLQDVADDIDFDIPGHVNGDFQQDLSEKVADFATADYYLTIGFDHGKTSLYAGGPDEQLTPLIGGRRHVTDYALTPDHHGVVFTESTMTVPSRLSYFDLATEEEHVIYDPNRRVTRDMGLVTPQTFNFQRDGFEIEGWYFPPQQATASHPAILYVHGGPAVGYGYTFFHEMQFLAA | not soluble
13 | MCSYARATDANGESFIYCRTWQGQFFRFKLEDRVYDYVTTFAKSDACLATDPDDPTKIYCALNEYNKITCIDLTKNPEDSGFETDVCGIQGPGAYQDGHVSVARLNNPQQILSMHDPETGEKVIYICDANNNCVRMYNMETKLMSTVAGIGGKSGYAAGNPTVSRMNRPYGICITPENDIYVADAGNKVIMKLAFMLEHHHHHH | not soluble
14 | MKYRITTWLAAALMLSSLHATAASLSDIQVSNGDQQARITLSFVGEPEYSFTPQGKRLVALDIKQTGVLQGLPLQFSGSNLVKSIRAGTPQDTQTLRLLVDLTEDGKTRAVKQQNGANYTVVFTINAEAPPPPVVVKRADPPPVMPSRTTTPGRNPFSSSGHERQTVMTSSQPAMTNNQTVTRPAARTVSADDKVIIAIDAGHGGQDPGAIGPNGTKEKNVTIAIARKLRALLNADPQFKPVLTRDGDYFISVMGRSEVARKQNANFLVSIHADAAPNRDATGASVWVLSNRRANSEMAGWLEQHEKQSELLGGAGDVLANSQADPYLSQAVLDLQFGHSQRVGYDVATNVLSQLQRIGNLHKRRPEHASLGVLRSPDIPSILVETGFISNNGEERLLGSDDYQEQIAEAIYNGLRNYFMQHPLQSAPRGEAAQTASAAAPGGMLIN | not soluble
15 | MGSDKIHHHHHHVMARIHNRDWCLACTSSLKELPRHVYFRAYSLKGGTCVQGHEHVWWQFLFARNGLMQVQAGATTLTLPPDYGVWIPPGCVHTLWIGEEVELESLYIEPTAVAIQDQEPRVVMVDEFVRAFIHHGCTSIPVKYDEDGADGRKVKVLLDSLQSLPDAPFNLPFPTEPRLLEVCLTIQSAPHLAHTLDESAGLARMSSRTFTRHFLRATGLPYHTWRQRMRLLGSLEMLRSDITVTEVALTIGYSTPSAFTHAFKQLFGKSPSRFTRPEPK | not soluble
16 | MNDFRPNPSLLLETSWEVCNKQGGIYTVLTSRAHEMMKRHDGRIIFIGPLLTEQEDLPTDFENTVPAILEDWHRDAAPSLDLRYVCGSWRTPGSPPVVLVDFEPLHAQKATLYYEMWEHFGIQSDKGYGDYDEASLFGIAAAQTMHSLCEYLCPEDQPAIGIFNEWMLGMGLLYSKRKTPRLKTLFLTHATTTGRSIAGNNKALYAYMPGYNGDQMAAELGVEAKHGIEKAAAHQSDTFATVSELTAKECRQLLERDPMVLPNGFEPNFVPQGEEYERRRAEARKRLLHVAEHLTGKQLPADTLLIATSGRYEYRNKGIDLFIDAASEAGRSGK | not soluble
17 | MTDNLLSISAACLFDDQGNLLLVRKRGTQAFMLPGGKREPGETPLAALQRELLEELRLPMGASTFEHLGSFQAPAANEANTRVDADIYVARLPHAVCAQAELEELAWLVPGQAQPDNLAPLLRDHVLPALARRAAENPETQAEHRTRPDHVR | not soluble
18 | MGHHHHHHSHVLLNEILEQVKDRTCLRALEKIKIQLEKGNKEFGDQAEAAQDATLTTTTFQNEDEKNKEVYMTPLRGVKATQASKSTQLKTNRGQRKVTVSARTNRRCQTAEADSESDHEVPEPESEMKMRLPRRAKTAALEKSKLNLAQFLNEDLS | not soluble
19 | MAVRKLTTGKWLCECYPAGRSGRRVRKQFATKGEALAFERHTMEETEAKPWLGESVDRRTLKDVVELWFKLHGKSLTAGQHVYDKLLLMVDALGNPLATDLTSKMFAHYRDKRLTGEIYFSEKWKKGASPVTINLEQSYLSSVFSELSRLGEWSYPNPLENMRKFTIA | not soluble
20 | MSYFSHQDPNNPESHINFTMAQMEIQRWTLLISNPEADASTLVMELKTVTGESKHFINQAINAMWALMKLPILRVVVETHFHVRIPYLARIMQAVKQAKPELWDELDHRIAEKLTPRIAGQALMEASALAGLITRWIKELDPTFTGKKRGPKGSDGTLTFRHVDGRTYISGNIDGVTGKLFQKALEKVKQKGEDLARALVTFLAGRTKVKIVSAVYTPLVGGVSWIPGVGFLSQEESRKLGKTASKVIDLDTIATRVENGYTPSPELRLYVMGRDGTCRHPGCTVSADNCQIDHVIPFGEGGLTVAWNLQCLCAHHHNMKTDGRIQAAIDSMGRVAWIGPCNRTVVTEPVGPLAQEMPTGQWGQTLEARMEKTFEKLRSSLEVLDDLEHHHHHH | soluble
